Among the data in patent US20110280883A1 (SAMSUNG ELECTRONICS, published 2011) are Kd values, retold here.

The experiment addresses T1, EGFR on A431 cell line (overexpresses EGFR) (UniProt P00533 25-1210).
T1 construct: whole, on cells; also called A431 cells; cells overexpressing EGFR
Briefly: cell ELISA on A431 cells attached to the plate, antibody titrated. The method, then: Binding capacity between the antibody obtained in 5 and the A431 cell line (ATCC) which overexpresses EGFR is determined by ELISA [Biological efficacy of a chimeric antibody to the epidermal growth factor receptor in a human tumor xenograft model, Clinic. Cancer res., 1995, vol. 1, 1311-1318] (the entire contents of which are incorporated herein by reference). The protocol for the ELISA assay is similar to that described in 6 above, except that antibody was used over a range of concentration and A431 cells were attached to the plate.

B1: Erbb1 78 clone antibody (fully human full-length IgG) (antibody, V domains shown)
VH: QMQLVQSGGGVVRPGGSLRLSCAASGFTFDDYGMSWVRQAPGKGLEWVSGINWNGGSTGYADSVKGRFTISRDNAKNSLYLQMNSLRAEDTAVYYCARDYWGSLDYWGQGTLITVSS
VL: QSALTQPASVSGSPGQSITISCTGTSSDVGGYNYVSWYQQNSGKAPKLMIHDVNRRPSGVSNRFSGSKSGNTASLTIAGLQADDEADYYCSSYVSTNTYVFGTGTKVTVL
notes: also called Erbb1-78 antibody
As for B1, the affinity, expressed as Kd, was 1.09 nM.
